Source: paper PMC5660122 (2017)
Each block holds one binder with its values, some of them ahead of it.

Experiments:
Assay in all cases: SPR
2V-BB11-2V = 2V-BB11-2V (Squalus acanthias)
2V-E06-2V = 2V-E06-2V (Squalus acanthias | dogfish)
2V-BA11-2V = 2V-BA11-2V (Squalus acanthias)
humanized E06 BB11 = target: humanized E06 BB11
humanized E06 BA11 = target: humanized E06 BA11
humanized E06 v2.4-2G = target: humanized E06 v2.4-2G
2V-BB10-2V = 2V-BB10-2V (Squalus acanthias)

Kd (2V-BB11-2V): 1.49 nM
koff (2V-BB11-2V): 0.0035 s⁻¹
Kd (2V-E06-2V): 7.6 nM
koff (2V-E06-2V): 0.00075 s⁻¹
Kd (2V-BA11-2V): 18.7 nM
koff (2V-BA11-2V): 0.00054 s⁻¹
Kd (humanized E06 BB11): 8.29 nM
Kd (humanized E06 BA11): 130 nM
Kd (humanized E06 v2.4-2G): 7.64 nM
B1: rat serum albumin (natural protein)
chain: EAHKSEIAHRFKDLGEQHFKGLVLIAFSQYLQKCPYEEHIKLVQEVTDFAKTCVADENAENCDKSIHTLFGDKLCAIPKLRDNYGELADCCAKQEPERNECFLQHKDDNPNLPPFQRPEAEAMCTSFQENPTSFLGHYLHEVARRHPYFYAPELLYYAEKYNEVLTQCCTESDKAACLTPKLDAVKEKALVAAVRQRMKCSSMQRFGERAFKAWAVARMSQRFPNAEFAEITKLATDVTKINKECCHGDLLECADDRAELAKYMCENQATISSKLQACCDKPVLQKSQCLAEIEHDNIPADLPSIAADFVEDKEVCKNYAEAKDVFLGTFLYEYSRRHPDYSVSLLLRLAKKYEATLEKCCAEGDPPACYGTVLAEFQPLVEEPKNLVKTNCELYEKLGEYGFQNAVLVRYTQKAPQVSTPTLVEAARNLGRVGTKCCTLPEAQRLPCVEDYLSAILNRLCVLHEKTPVSEKVTKCCSGSLVERRPCFSALTVDETYVPKEFKAETFTFHSDICTLPDKEKQIKKQTALAELVKHKPKATEDQLKTVMGDFAQFVDKCCKAADKDNCFATEGPNLVARSKEALA

Kd (2V-BB11-2V): 0.64 nM
koff (2V-BB11-2V): 0.000472 s⁻¹
Kd (2V-E06-2V): 0.76 nM
koff (2V-E06-2V): 0.000126 s⁻¹
Kd (2V-BB10-2V): 5.5 nM
koff (2V-BB10-2V): 0.00439 s⁻¹
Kd (2V-BA11-2V): 7.95 nM
koff (2V-BA11-2V): 9.48e-05 s⁻¹
B2: cynomolgus serum albumin (natural protein)
chain: DTHKSEVAHRFKDLGEEHFKGLVLVAFSQYLQQCPFEEHVKLVNEVTEFAKTCVADESAENCDKSLHTLFGDKLCTVATLRETYGEMADCCAKQEPERNECFLQHKDDNPNLPPLVRPEVDVMCTAFHDNEATFLKKYLYEVARRHPYFYAPELLFFAARYKAAFAECCQAADKAACLLPKLDELRDEGKASSAKQRLKCASLQKFGDRAFKAWAVARLSQKFPKAEFAEVSKLVTDLTKVHTECCHGDLLECADDRADLAKYMCENQDSISSKLKECCDKPLLEKSHCLAEVENDEMPADLPSLAADYVESKDVCKNYAEAKDVFLGMFLYEYARRHPDYSVMLLLRLAKAYEATLEKCCAAADPHECYAKVFDEFQPLVEEPQNLVKQNCELFEQLGEYKFQNALLVRYTKKVPQVSTPTLVEVSRNLGKVGAKCCKLPEAKRMPCAEDYLSVVLNRLCVLHEKTPVSEKVTKCCTESLVNRRPCFSALELDEAYVPKAFNAETFTFHADMCTLSEKEKQVKKQTALVELVKHKPKATKEQLKGVMDNFAAFVEKCCKADDKEACFAEEGPKFVAASQAALA
